Assay results reported in publication PMC4215257, “Geminin Inhibits a Late Step in the Formation of Human Pre-replicative Complexes*” (The Journal of Biological Chemistry, 2014).

T1: FLAG-HsGeminin-His6 (wild type) (Homo sapiens (Human), UniProt O75496)
T1 chain: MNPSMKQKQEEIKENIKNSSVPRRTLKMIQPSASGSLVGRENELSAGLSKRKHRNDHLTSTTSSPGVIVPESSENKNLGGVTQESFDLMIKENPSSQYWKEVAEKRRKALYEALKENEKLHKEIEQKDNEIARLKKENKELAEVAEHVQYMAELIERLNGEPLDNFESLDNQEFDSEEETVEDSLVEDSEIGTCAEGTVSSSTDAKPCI

B1: FLAG-HsGeminin-His6 (wild type) (natural protein, human, UniProt O75496 1-209, looked up)
chain: T1 chain
notes: also called wild-type HsGeminin; wt; source: Sf9, baculovirus; purified (Ni-NTA, then anti-FLAG M2 agarose); also in Sf9 lysate; not shown: FLAG, N-terminal, kept; His6, C-terminal, kept
B2: FLAG-HsCdt1 (natural protein, human, UniProt Q9H211 1-546, looked up)
chain: MEQRRVTDFFARRRPGPPRIAPPKLACRTPSPARPALRAPASATSGSRKRARPPAAPGRDQARPPARRRLRLSVDEVSSPSTPEAPDIPACPSPGQKIKKSTPAAGQPPHLTSAQDQDTISELASCLQRARELGARVRALKASAQDAGESCTPEAEGRPEEPCGEKAPAYQRFHALAQPGLPGLVLPYKYQVLAEMFRSMDTIVGMLHNRSETPTFAKVQRGVQDMMRRRFEECNVGQIKTVYPASYRFRQERSVPTFKDGTRRSDYQLTIEPLLEQEADGAAPQLTASRLLQRRQIFSQKLVEHVKEHHKAFLASLSPAMVVPEDQLTRWHPRFNVDEVPDIEPAALPQPPATEKLTTAQEVLARARNLISPRMEKALSQLALRSAAPSSPGSPRPALPATPPATPPAASPSALKGVSQDLLERIRAKEAQKQLAQMTRCPEQEQRLQRLERLPELARVLRSVFVSERKPALSMEVACARMVGSCCTIMSPGEMEKHLLLLSELLPDWLSLHRIRTDTYVKLDKAADLAHITARLAHQTRAEEGL
notes: human Cdt1; also called human Cdt1; source: Sf9, baculovirus; purified (anti-FLAG M2 agarose, FLAG peptide elution); also in Sf9 lysate; not shown: FLAG, N-terminal, kept
B3: Myc-HsCdc6 (natural protein, human, UniProt Q99741 1-560, looked up)
chain: MPQTRSQAQATISFPKRKLSRALNKAKNSSDAKLEPTNVQTVTCSPRVKALPLSPRKRLGDDNLCNTPHLPPCSPPKQGKKENGPPHSHTLKGRRLVFDNQLTIKSPSKRELAKVHQNKILSSVRKSQEITTNSEQRCPLKKESACVRLFKQEGTCYQQAKLVLNTAVPDRLPAREREMDVIRNFLREHICGKKAGSLYLSGAPGTGKTACLSRILQDLKKELKGFKTIMLNCMSLRTAQAVFPAIAQEICQEEVSRPAGKDMMRKLEKHMTAEKGPMIVLVLDEMDQLDSKGQDVLYTLFEWPWLSNSHLVLIGIANTLDLTDRILPRLQAREKCKPQLLNFPPYTRNQIVTILQDRLNQVSRDQVLDNAAVQFCARKVSAVSGDVRKALDVCRRAIEIVESDVKSQTILKPLSECKSPSEPLIPKRVGLIHISQVISEVDGNRMTLSQEGAQDSFPLQQKILVCSLMLLIRQLKIKEVTLGKLYEAYSKVCRKQQVAAVDQSECLSLSGLLEARGILGLKRNKETRLTKVFFKIEEKEIEHALKDKALIGNILATGLP
notes: human Cdc6; also called human Cdc6; source: Sf9, baculovirus; purified (anti-c-Myc 9E10 agarose, 9E10 peptide elution); also in Sf9 lysate; not shown: Myc, N-terminal, kept

Key:
[1] = target: B2; test: co-IP; 60 ng purified FLAG-HsCdt1 with 40 ng wild-type or mutant HsGeminin; rabbit anti-human Geminin polyclonal antibodies on protein A/G plus agarose; PBS plus 1 mg/ml BSA, 4 °C, 3 h; washed with PBS plus 0.5 M NaCl; Western blot; details: both partners purified
[2] = target: T1, FLAG-HsGeminin-His6 (wild type); test: co-immunoprecipitation of purified proteins (anti-Geminin, 0.5 M NaCl wash, Western blot)
[3] = target: T2, HsMCM467 complex (human, UniProt P33991 1-863; Q14566 1-821; P33993 1-719); test: recruitment to DNA-coupled magnetic beads; two steps: HsORC or control buffer on pUC19-lamin-B2 DNA beads, then HsMCM467 or HsMCM2–7 with HsCdc6 and/or HsCdt1; 90 mM potassium acetate, 4 mM ATP, 37 °C, 30 min; washed with 100 mM potassium glutamate; Western blot; details: both partners purified
T2 construct: human Mcm4; human Mcm6, untagged; human Mcm7, untagged; source: Sf9 co-infected with baculoviruses for His6-2xFLAG-HsMcm4, HsMcm6 and HsMcm7; purified (Ni-NTA, then FLAG M2 agarose); copies: + +
T2 sequence (P33991 whole entry, chain 1 of 3): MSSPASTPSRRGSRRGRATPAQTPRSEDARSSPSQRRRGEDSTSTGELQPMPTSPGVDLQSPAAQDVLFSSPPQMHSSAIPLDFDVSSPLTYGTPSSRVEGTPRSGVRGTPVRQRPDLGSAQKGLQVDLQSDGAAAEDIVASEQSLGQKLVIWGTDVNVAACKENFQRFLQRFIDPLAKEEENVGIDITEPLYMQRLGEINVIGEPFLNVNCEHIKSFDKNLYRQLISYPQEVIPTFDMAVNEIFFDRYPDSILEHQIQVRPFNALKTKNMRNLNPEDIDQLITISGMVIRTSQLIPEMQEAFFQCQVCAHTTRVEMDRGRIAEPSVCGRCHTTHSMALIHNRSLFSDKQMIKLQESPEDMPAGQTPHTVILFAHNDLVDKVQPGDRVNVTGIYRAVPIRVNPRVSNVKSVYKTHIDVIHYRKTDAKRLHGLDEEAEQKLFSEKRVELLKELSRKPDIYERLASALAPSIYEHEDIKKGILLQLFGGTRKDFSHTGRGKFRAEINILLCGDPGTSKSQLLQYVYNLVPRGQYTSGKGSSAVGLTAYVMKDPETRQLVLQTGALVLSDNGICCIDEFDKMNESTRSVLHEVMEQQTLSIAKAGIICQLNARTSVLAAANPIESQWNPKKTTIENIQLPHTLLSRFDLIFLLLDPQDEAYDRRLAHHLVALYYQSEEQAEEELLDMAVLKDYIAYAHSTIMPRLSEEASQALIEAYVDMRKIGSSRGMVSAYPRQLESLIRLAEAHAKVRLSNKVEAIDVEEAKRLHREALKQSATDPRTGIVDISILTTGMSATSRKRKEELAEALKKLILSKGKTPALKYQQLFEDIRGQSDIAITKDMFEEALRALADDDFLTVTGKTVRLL
T2 sequence (Q14566 whole entry, chain 2 of 3): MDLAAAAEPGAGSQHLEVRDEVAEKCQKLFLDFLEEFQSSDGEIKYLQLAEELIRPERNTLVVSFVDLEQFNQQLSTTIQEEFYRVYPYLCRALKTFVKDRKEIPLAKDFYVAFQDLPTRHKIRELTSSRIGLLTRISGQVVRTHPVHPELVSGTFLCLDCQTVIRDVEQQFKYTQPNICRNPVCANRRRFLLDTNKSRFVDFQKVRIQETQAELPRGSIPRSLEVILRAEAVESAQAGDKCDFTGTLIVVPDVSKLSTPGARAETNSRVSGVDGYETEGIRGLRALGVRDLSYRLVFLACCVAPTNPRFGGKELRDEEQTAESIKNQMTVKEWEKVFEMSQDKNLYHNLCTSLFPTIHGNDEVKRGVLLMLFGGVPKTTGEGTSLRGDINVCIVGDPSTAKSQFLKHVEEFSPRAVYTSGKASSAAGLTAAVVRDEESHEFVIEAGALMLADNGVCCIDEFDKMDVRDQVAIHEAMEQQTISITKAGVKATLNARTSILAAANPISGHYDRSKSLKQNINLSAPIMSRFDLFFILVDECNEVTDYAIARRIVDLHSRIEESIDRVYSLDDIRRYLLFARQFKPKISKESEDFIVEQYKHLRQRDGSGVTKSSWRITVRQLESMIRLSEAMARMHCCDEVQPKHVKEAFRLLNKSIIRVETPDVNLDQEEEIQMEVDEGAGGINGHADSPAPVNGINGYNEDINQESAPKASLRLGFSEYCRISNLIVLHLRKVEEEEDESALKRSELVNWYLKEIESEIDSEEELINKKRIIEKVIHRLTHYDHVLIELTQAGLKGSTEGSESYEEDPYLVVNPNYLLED
T2 sequence (P33993 whole entry, chain 3 of 3): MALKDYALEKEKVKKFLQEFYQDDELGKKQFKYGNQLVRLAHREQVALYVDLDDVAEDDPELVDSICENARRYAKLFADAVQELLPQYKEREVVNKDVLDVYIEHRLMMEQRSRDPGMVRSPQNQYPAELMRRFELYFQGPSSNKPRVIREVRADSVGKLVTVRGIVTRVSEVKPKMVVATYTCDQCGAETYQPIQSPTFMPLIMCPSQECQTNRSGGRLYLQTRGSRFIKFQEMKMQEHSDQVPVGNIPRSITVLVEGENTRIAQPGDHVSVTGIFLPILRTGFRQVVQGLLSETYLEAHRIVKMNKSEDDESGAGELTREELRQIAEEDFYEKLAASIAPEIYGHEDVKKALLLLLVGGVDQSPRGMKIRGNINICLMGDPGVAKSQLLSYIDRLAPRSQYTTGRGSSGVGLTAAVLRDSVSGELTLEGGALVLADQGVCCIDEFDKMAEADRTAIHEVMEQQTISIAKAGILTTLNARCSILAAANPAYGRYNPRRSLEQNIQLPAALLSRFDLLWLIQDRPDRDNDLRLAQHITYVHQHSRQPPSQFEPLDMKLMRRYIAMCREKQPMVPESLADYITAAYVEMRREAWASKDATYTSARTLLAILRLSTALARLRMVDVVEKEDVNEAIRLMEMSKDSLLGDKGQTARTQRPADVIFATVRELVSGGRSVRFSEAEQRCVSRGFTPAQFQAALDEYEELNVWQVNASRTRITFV

[4] = target: T3, HsMCM2–7 complex (human | human (endogenous in 293T), UniProt P49736 1-904; P25205 1-808; P33991 1-863; P33992 1-734; Q14566 1-821; P33993 …); test: as above; details: both partners purified
T3 construct: human Mcm2, full length; Mcm3, endogenous in 293T; Mcm4, endogenous in 293T; Mcm5, endogenous in 293T; Mcm6, endogenous in 293T; Mcm7, endogenous in 293T; also called complete heterohexameric human MCM complex; copies: + + + + +

Binder | binding result [1] | binding result [2] | binding result [3] | binding result [4]
B1 | binds | – | – | –
B2 | – | binds | binds | –
B3 | – | – | binds | binds
